Target: T1, DHX36 (UniProt Q9H2U1 1-1008)
T1 sequence: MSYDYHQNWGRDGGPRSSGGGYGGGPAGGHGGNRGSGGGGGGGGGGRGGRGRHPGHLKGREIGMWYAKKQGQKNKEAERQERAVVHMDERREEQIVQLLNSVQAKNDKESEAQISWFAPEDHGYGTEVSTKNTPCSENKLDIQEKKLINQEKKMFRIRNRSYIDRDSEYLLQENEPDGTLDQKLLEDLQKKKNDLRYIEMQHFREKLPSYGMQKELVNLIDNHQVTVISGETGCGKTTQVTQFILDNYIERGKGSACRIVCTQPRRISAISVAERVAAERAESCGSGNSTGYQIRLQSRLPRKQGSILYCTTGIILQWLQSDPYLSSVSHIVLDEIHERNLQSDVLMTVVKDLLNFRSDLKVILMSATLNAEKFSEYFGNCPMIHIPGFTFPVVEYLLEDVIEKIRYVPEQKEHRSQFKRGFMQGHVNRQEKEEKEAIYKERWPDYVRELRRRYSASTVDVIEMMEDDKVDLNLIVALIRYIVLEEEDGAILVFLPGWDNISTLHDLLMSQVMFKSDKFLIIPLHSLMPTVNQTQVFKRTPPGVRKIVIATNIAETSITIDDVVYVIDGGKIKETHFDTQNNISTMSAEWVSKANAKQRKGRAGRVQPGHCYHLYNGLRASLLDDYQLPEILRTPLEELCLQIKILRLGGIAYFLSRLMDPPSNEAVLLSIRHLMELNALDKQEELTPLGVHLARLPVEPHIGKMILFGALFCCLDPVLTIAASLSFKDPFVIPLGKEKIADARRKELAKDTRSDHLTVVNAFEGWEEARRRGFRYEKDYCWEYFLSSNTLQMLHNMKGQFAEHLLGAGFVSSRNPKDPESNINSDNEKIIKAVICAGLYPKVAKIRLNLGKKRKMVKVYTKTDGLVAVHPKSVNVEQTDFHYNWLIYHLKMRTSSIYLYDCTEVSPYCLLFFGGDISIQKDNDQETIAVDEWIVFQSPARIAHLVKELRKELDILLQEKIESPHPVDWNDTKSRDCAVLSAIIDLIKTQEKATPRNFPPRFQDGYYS
Experiment: EMSA; EMSA: 150 mM KCl, 1 mM MgCl2, 25 mM Tris-HCl pH 7.5, 8% sucrose, 30 min at 37 C; gel at 4 C. Pull-down: same buffer without sucrose, 4 C
Settings: protein: commercial; label: 5' HEX; intramolecular rG4 with 3' single-stranded flank

GGGGCGGGUGGGGAGGGGUGCUCUGCUGGUCUUCAAUU (structured_RNA) [HEX_APP rG4 wt region] showed a Kd of 51.3 ± 10.1 nM.
